Experimental data published in article PMC8617272.

Biological target: AdeB from Acinetobacter baumannii (RND transporter subunit of the AdeABC efflux pump) (Acinetobacter baumannii AYE)
Assay: native gel or EMSA + other: negative stain electron microscopy; AdeB reconstituted into Salipro Nanodiscs

Work on “AdeB from Acinetobacter baumannii (RND transporter subunit of the AdeABC efflux pump) (natural protein)” yielded a stoichiometry N of 3.
